Reference: PMC9221443, “Peptidomimetics Based on C-Terminus of Blm10 Stimulate Human 20S Proteasome Activity and Promote Degradation of Proteins” (Biomolecules, 2022)

Test system: 20S proteasome (h20S)
Assay: Microscale thermophoresis (MST) protein-proteasome interaction
Format: binding, human
Conditions: NT-647-labeled protein titrated with h20S 0.06-1965 nM; 22 °C; 20 mM Tris-HCl pH 7.2; three independent experiments; read-out: EC50 of binding to 20S proteasome (MST, Hill fit)
Method: Enolase, α-synuclein and their oxidized forms were labeled using Monolith Protein Labeling Kit RED-NHS 2nd Generation Amine Reactive, NT-647 (Nanotemper, München, Germany), according to the manufacturer instructions. The labeling process was carried out in 50 mM HEPES buffer, pH 7.4, in the protein:NT-647 1:2 ratio. The incubation time was 60 min for enolase and 30 min for α-synuclein, at 21 °C. After labeling, the excess of the fluorescent reagent was removed using the columns provided by the manufacturer and 20 mM Tris-HCl buffer, pH 7.2, containing 200 mM NaCl and 10% glycerol. The obtained labeled proteins were concentrated on Amicon 3K spin-columns (Merck, Darmstadt, Germany). Protein concentrations were determined by measuring absorbance at 280 nm, using UV/Vis spectrophotometer (DU®730 Beckman Coulter).
Direct interactions between the fluorescently labeled, native and oxidized, proteins and the 20S proteasome were examined using microscale thermophoresis (NanoTemper Monolith NT.115). The labeled protein concentration was kept constant at 250 nM for native and oxidized α-synuclein and 125 nM and 25 nM for native and oxidized enolase, respectively. […] The EC50 values were calculated based on results obtained in three independent experiments.

EC50: 0.0878 ± 0.0129 µM
B1: oxidized enolase: human enolase 2 incubated with 0.5% H2O2 for 2 h at 30 °C (protein, UniProt P09104 2-434, looked up)
Gamma-enolase: SIEKIWAREILDSRGNPTVEVDLYTAKGLFRAAVPSGASTGIYEALELRDGDKQRYLGKGVLKAVDHINSTIAPALISSGLSVVEQEKLDNLMLELDGTENKSKFGANAILGVSLAVCKAGAAERELPLYRHIAQLAGNSDLILPVPAFNVINGGSHAGNKLAMQEFMILPVGAESFRDAMRLGAEVYHTLKGVIKDKYGKDATNVGDEGGFAPNILENSEALELVKEAIDKAGYTEKIVIGMDVAASEFYRDGKYDLDFKSPTDPSRYITGDQLGALYQDFVRDYPVVSIEDPFDQDDWAAWSKFTANVGIQIVGDDLTVTNPKRIERAVEEKACNCLLLKVNQIGSVTEAIQACKLAQENGWGVMVSHRSGETEDTFIADLVVGLCTGQIKTGAPCRSERLAKYNQLMRIEEELGDEARFAGHNFRNPSVL
modifications: H2O2-oxidized
notes: human enolase 2 incubated with 0.5% H2O2 for 2 h at 30 °C
